Residue numbers refer to the chain shown, from its start.
T1: 6His-Cdc24_(428-854) _(K801A) (yeast, UniProt P11433 428-854, K801A)
T1 sequence: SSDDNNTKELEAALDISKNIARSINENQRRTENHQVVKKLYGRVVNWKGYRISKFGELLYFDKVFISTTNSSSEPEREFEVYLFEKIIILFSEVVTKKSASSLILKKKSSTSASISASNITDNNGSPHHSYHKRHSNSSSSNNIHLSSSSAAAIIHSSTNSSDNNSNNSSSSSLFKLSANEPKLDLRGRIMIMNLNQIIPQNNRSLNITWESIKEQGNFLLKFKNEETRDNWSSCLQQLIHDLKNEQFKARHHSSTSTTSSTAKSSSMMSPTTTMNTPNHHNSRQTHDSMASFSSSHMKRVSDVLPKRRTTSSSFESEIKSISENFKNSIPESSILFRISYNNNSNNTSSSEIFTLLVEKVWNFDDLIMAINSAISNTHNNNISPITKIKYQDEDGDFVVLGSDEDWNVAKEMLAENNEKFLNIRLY

T2: Cdc24_(428-854) _(K525E) _(K801A) (yeast, UniProt P11433 428-854, K525E | K801A)
T2 sequence: T1 sequence with K98E

T3: Cdc24_(428-854) _(K525E) (yeast, UniProt P11433 428-854, K525E)
T3 sequence: T1 sequence with K98E, A374K

B1: 6His-Cdc24_(428-854) (domain or fragment)
chain: T1 sequence with A374K
B2: 6His-Cdc11-SNAP (natural protein)
chain: MSGIIDASSALRKRKHLKRGITFTVMIVGQSGSGRSTFINTLCGQQVVDTSTTILLPTDTSTEIDLQLREETVELEDDEGVKIQLNIIDTPGFGDSLDNSPSFEIISDYIRHQYDEILLEESRVRRNPRFKDGRVHCCLYLINPTGHGLKEIDVEFIRQLGSLVNIIPVISKSDSLTRDELKLNKKLIMEDIDRWNLPIYNFPFDEDEISDEDYETNMYLRTLLPFAIIGSNEVYEMGGDVGTIRGRKYPWGILDVEDSSISDFVILRNALLISHLHDLKNYTHEILYERYRTEALSGESVAAESIRPNLTKLNGSSSSSTTTRRNTNPFKQSNNINNDVLNPASDMHGQSTGENNETYMTREEQIRLEEERLKAFEERVQQELLLKRQELLQREKELREIEARLEKEAKIKQEE
modifications: biotinylated with BG-Biotin (on the SNAP tag)
B3: GST-Cdc11 (natural protein)
chain: B2 chain

How the values were obtained:
SNAP-tagged septin rods = SNAP-tagged septin rods (yeast, UniProt P32458;P32468;P32457;P25342); assay: SPR
Chain of SNAP-tagged septin rods (P32468 whole entry, chain 2 of 3): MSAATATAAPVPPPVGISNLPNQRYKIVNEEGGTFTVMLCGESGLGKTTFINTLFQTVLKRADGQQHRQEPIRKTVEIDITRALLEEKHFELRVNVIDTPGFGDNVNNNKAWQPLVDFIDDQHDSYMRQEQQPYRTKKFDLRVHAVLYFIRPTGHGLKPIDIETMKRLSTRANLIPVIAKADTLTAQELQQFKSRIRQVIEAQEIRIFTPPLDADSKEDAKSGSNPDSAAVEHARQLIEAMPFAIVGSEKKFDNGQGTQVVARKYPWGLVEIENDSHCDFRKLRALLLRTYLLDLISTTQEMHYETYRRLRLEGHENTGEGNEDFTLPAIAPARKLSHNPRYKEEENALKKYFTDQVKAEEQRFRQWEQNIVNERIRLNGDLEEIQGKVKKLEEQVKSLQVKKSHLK
Chain of SNAP-tagged septin rods (P32457 whole entry, chain 3 of 3): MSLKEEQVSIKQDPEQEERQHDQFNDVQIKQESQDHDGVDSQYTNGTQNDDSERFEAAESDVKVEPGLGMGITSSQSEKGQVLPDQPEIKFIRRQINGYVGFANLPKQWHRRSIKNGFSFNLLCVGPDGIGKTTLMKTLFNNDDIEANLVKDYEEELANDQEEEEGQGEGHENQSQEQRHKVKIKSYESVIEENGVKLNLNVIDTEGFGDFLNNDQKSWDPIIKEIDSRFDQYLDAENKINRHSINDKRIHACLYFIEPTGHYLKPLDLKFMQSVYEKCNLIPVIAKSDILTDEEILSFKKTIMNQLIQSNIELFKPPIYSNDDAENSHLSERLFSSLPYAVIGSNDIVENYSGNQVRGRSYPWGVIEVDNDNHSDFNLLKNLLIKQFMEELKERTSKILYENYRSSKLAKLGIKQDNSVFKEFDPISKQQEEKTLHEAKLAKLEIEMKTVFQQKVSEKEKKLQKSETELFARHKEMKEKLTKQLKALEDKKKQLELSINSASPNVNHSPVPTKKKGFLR
Chain of SNAP-tagged septin rods (P25342 whole entry, chain 4 of 3): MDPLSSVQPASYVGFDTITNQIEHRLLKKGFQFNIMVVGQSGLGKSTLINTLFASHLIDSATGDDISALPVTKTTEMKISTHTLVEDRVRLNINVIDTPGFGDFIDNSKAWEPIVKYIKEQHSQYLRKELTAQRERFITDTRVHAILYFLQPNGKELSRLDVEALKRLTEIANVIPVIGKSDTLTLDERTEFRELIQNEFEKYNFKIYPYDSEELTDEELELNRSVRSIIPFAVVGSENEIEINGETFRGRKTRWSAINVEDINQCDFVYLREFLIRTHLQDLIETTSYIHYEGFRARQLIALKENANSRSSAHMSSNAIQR

[1] = biological target: T1, 6His-Cdc24_(428-854) _(K801A); assay: SPR
[2] = biological target: T2, Cdc24_(428-854) _(K525E) _(K801A); assay: SPR
6His-Cdc24_(428-854) [3] = biological target: B1; assay: SPR
Cdc24_(428-854) _(K525E) = biological target: T3, Cdc24_(428-854) _(K525E); assay: SPR
6His-Cdc24_(428-854) [4] = biological target: B1; assay: pull-down

B1
Kd (SNAP-tagged septin rods): 351 nM

B2
binding result [1]: binds | binding result [2]: binds | Kd (6His-Cdc24_(428-854) [3]): 257 nM | binding result (Cdc24_(428-854) _(K525E)): binds

B3
binding result (6His-Cdc24_(428-854) [4]): binds

Reference: doi:10.1101/719815 (bioRxiv, 2019)
